Measurements from PMC12043514 (Nature, 2024).

How the values were obtained:
[1] = target: SV40 large tumour antigen (LTag) helicase hexamer (Simian virus 40, UniProt P03070 1-708); test: cryo-EM
cryo-EM structure = target: the molecule itself; test: cryo-EM structure

Row | Binder | binding result [1] | stoichiometry N (cryo-EM structure)
1 | gap DNA substrate without free 3' ssDNA tail (mixed, 3' terminal dideoxy-C ([23ddC]) on strand 1) DNA 1: AGCTATGACCATGATTACGAATTGC DNA 2: TTTTTCGGAGTCGTTTCGACTCCGATTTTTTTTTTTTTTTTTTTTTTTTTTTTTTTTTTTTTTTTTTTTTGCAATTCGTAATCATGGTCATAGCT | no binding | 
2 | simian virus 40 large tumour antigen (LTag) helicase (enzyme) MDKVLNREESLQLMDLLGLERSAWGNIPLMRKAYLKKCKEFHPDKGGDEEKMKKMNTLYKKMEDGVKYAHQPDFGGFWDATEIPTYGTDEWEQWWNAFNEENLFCSEEMPSSDDEATADSQHSTPPKKKRKVEDPKDFPSELLSFLSHAVFSNRTLACFAIYTTKEKAALLYKKIMEKYSVTFISRHNSYNHNILFFLTPHRHRVSAINNYAQKLCTFSFLICKGVNKEYLMYSALTRDPFSVIEESLPGGLKEHDFNPEEAEETKQVSWKLVTEYAMETKCDDVLLLLGMYLEFQYSFEMCLKCIKKEQPSHYKYHEKHYANAAIFADSKNQKTICQQAVDTVLAKKRVDSLQLTREQMLTNRFNDLLDRMDIMFGSTGSADIEEWMAGVAWLHCLLPKMDSVVYDFLKCMVYNIPKKRYWLFKGPIDSGKTTLAAALLELCGGKALNVNLPLDRLNFELGVAIDQFLVVFEDVKGTGGESRDLPSGQGINNLDNLRDYLDGSVKVNLEKKHLNKRTQIFPPGIVTMNEYSVPKTLQARFVKQIDFRPKDYLKHCLERSEFLLEKRIIQSGIALLLMLIWYRPVAEFAQSIQSRIVEWKERLDKEFSLSVYQKMKFNVAMGIGVLDWLRNSDDDDEDSQENADKNEDGGEKNMEDSGHETGIDSQSQGSFQAPQSSQSVHDHNQPYHICRGFTCFKKPPTPPPEPET |  | 6
